Results taken from patent US20090098588A1.

Legend:
Experiment in all cases: cell-based or functional assay
SSTR1 fused to PK1 = SSTR1 fused to PK1 (UniProt P30872)
PTHR2 fused to PK2 = PTHR2 fused to PK2 (UniProt P49190)
SALPR fused to PK2 = SALPR fused to PK2 (UniProt Q9NSD7)
MC3R fused to PK2 = MC3R fused to PK2 (UniProt P41968)
CCR6 fused to PK1 = molecular target: T1, CCR6 fused to PK1 (UniProt P51684)
T1 sequence (looked up): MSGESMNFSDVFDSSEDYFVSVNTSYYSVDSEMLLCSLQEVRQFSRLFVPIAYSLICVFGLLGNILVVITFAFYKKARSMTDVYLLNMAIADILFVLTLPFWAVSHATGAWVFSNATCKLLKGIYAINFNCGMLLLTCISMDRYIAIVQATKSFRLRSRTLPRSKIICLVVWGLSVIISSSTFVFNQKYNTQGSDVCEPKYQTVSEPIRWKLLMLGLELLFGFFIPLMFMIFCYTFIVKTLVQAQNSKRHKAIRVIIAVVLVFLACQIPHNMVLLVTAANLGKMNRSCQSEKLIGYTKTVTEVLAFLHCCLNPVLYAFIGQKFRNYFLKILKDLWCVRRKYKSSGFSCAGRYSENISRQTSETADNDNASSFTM

CCR6 fused to PK2 = molecular target: T2, CCR6 fused to PK2 (UniProt P51684)
T2 sequence (P51684 whole entry, species assumed, looked up): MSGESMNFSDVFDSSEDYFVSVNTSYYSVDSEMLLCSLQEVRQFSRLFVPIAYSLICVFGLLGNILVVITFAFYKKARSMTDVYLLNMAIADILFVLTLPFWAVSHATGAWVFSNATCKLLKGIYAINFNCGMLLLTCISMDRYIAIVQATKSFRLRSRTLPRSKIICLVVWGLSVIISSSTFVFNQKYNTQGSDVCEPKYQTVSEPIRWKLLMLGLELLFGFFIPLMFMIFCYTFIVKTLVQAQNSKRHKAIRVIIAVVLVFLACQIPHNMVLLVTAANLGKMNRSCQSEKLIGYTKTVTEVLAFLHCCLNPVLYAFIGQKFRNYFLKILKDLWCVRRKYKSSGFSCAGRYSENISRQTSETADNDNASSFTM

CRHR2 fused to PK1 = molecular target: T3, CRHR2 fused to PK1 (UniProt Q13324)
T3 sequence (looked up): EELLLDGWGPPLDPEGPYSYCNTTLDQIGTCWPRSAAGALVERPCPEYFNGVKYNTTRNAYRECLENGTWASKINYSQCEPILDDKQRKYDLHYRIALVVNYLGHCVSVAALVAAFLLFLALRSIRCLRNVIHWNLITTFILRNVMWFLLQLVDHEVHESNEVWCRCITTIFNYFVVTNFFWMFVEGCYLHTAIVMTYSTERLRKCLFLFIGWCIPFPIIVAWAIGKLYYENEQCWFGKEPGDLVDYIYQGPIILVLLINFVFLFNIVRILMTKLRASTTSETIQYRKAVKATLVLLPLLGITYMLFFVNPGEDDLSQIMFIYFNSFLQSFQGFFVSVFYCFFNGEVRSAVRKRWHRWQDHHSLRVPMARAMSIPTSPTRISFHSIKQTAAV

CRHR2 fused to PK2 = molecular target: T4, CRHR2 fused to PK2 (UniProt Q13324)
T4 sequence (Q13324 whole entry, species assumed, looked up): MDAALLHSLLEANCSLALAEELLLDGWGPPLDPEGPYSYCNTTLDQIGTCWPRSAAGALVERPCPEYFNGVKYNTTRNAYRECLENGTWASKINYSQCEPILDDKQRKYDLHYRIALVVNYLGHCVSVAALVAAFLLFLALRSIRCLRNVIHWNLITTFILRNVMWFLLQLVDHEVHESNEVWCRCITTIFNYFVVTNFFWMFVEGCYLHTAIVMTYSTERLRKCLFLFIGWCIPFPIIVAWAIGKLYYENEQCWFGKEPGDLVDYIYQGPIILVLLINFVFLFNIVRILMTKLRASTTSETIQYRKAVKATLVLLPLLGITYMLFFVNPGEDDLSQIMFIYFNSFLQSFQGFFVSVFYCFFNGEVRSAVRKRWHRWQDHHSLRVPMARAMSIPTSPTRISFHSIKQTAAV

SSTR1 fused to PK2 = SSTR1 fused to PK2 (UniProt P30872)
SSTR4 fused to PK1 = SSTR4 fused to PK1 (UniProt P31391)
SSTR4 fused to PK2 = SSTR4 fused to PK2 (UniProt P31391)
CCR4 fused to PK1 = molecular target: T5, CCR4 fused to PK1 (UniProt P51679)
T5 sequence (looked up): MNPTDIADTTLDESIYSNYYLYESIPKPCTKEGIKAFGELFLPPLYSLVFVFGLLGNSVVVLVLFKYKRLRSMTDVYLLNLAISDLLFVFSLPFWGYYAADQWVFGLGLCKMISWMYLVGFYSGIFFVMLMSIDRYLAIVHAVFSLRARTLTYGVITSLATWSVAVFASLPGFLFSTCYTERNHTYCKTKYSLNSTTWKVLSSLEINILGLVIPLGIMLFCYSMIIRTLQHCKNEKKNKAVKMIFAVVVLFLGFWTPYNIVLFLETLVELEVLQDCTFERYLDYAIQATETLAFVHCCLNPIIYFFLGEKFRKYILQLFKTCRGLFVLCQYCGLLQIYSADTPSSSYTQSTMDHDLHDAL

CCR4 fused to PK2 = molecular target: T6, CCR4 fused to PK2 (UniProt P51679)
T6 sequence (P51679 whole entry, species assumed, looked up): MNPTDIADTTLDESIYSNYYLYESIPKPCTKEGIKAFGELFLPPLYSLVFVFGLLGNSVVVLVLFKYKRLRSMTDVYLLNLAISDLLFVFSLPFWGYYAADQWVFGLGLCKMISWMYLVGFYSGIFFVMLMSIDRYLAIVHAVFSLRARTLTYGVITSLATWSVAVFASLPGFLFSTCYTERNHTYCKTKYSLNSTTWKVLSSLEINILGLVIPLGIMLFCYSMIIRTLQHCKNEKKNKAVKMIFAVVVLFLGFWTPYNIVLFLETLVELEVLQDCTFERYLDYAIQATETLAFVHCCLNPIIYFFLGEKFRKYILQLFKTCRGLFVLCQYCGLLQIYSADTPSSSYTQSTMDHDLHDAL

PTHR2 fused to PK2, sequence (P49190 whole entry, the tested form may be a part): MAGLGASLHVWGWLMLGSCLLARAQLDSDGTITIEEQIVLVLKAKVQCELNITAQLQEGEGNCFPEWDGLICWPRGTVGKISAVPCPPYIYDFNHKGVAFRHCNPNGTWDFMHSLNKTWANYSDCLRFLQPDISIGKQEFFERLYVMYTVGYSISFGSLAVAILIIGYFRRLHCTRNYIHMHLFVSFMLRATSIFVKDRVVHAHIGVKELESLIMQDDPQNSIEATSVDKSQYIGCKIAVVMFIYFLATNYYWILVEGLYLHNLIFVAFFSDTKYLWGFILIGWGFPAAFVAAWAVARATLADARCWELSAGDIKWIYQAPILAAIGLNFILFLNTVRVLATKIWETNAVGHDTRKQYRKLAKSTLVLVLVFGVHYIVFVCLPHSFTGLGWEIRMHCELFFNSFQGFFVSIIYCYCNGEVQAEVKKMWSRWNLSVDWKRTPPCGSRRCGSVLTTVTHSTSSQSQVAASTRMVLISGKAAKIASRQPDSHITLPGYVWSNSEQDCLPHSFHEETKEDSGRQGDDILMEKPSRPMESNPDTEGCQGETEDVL
SSTR1 fused to PK1, sequence (P30872 whole entry, the tested form may be a part): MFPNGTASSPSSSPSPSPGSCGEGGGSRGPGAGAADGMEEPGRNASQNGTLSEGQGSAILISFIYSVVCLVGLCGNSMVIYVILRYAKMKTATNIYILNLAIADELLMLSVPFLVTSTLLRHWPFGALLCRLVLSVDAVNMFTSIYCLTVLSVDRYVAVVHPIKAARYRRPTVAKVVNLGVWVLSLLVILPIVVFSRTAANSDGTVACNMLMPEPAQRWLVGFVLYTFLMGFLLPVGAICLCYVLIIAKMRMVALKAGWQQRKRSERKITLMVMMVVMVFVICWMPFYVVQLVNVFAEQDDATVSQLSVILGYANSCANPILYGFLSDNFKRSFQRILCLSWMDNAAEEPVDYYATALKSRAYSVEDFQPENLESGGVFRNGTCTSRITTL
SSTR4 fused to PK1, sequence (P31391 whole entry, the tested form may be a part): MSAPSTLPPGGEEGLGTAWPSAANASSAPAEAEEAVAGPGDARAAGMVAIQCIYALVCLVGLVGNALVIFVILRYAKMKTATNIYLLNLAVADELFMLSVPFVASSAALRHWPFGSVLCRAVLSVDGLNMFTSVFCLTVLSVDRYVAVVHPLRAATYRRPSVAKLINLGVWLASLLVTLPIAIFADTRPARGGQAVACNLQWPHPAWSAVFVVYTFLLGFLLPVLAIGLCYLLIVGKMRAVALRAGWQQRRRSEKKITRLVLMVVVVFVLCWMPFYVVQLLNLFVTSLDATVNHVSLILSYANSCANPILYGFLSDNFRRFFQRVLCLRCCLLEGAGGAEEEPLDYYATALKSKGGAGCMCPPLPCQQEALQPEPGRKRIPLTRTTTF
SSTR4 fused to PK2, sequence (P31391 whole entry, the tested form may be a part): as above
MC3R fused to PK2, sequence (P41968 whole entry, the tested form may be a part): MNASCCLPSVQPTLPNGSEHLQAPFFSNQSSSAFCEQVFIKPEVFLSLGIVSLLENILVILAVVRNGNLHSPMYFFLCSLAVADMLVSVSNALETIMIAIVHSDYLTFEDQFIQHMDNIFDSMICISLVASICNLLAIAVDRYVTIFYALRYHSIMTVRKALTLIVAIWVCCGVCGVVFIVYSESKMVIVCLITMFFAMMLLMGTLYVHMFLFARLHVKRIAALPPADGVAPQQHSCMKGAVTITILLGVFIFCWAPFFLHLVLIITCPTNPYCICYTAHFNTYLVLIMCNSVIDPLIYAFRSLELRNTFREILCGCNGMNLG
SSTR1 fused to PK2, sequence (P30872 whole entry, the tested form may be a part): as the sequence (P30872 whole entry, the tested form may be a part) above
SALPR fused to PK2, sequence (Q9NSD7 whole entry, the tested form may be a part): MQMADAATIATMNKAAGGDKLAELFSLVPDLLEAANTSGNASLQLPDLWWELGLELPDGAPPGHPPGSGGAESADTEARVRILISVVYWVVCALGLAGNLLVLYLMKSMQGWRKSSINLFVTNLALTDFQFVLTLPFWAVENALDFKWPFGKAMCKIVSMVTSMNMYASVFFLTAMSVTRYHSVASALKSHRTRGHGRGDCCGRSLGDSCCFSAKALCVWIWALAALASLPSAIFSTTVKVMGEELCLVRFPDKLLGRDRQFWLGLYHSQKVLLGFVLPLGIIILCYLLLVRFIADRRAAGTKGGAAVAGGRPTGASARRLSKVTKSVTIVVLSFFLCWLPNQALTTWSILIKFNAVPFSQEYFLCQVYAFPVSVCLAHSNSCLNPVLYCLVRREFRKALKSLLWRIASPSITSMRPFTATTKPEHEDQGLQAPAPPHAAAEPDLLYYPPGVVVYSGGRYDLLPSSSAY

For TYR-SRIF14 (peptide), which Fold induct. (arrestin recruitment, beta-galactosidase EFC, saturating ligand) (SSTR1 fused to PK1) is on record?
The Fold induct. (arrestin recruitment, beta-galactosidase EFC, saturating ligand) was 1 fold.

With “PTH (1-34) (from UniProt P01270 32-65) (peptide)” as the molecule, how does the Fold induct. (arrestin recruitment, beta-galactosidase EFC, saturating ligand) (PTHR2 fused to PK2) read?
The Fold induct. (arrestin recruitment, beta-galactosidase EFC, saturating ligand) was 72.9 fold.

“Relaxin-3 (from UniProt Q8WXF3 26-142) (ligand)” was tested. Which Fold induct. (arrestin recruitment, beta-galactosidase EFC, saturating ligand) (SALPR fused to PK2) did it give?
Its Fold induct. (arrestin recruitment, beta-galactosidase EFC, saturating ligand) is 1.8 fold.

“aMSH (from UniProt P01189 138-150) (peptide)” was tested. Which Fold induct. (arrestin recruitment, beta-galactosidase EFC, saturating ligand) (MC3R fused to PK2) did it give?
Its Fold induct. (arrestin recruitment, beta-galactosidase EFC, saturating ligand) is 3.2 fold.

“CCL20 (from UniProt P78556 27-96) (ligand)” was tested. Which Fold induct. (arrestin recruitment, beta-galactosidase EFC, saturating ligand) (CCR6 fused to PK1) did it give?
Its Fold induct. (arrestin recruitment, beta-galactosidase EFC, saturating ligand) is 1.4 fold.

What about the Fold induct. (arrestin recruitment, beta-galactosidase EFC, saturating ligand) (CCR6 fused to PK2) of the same molecule?
Its Fold induct. (arrestin recruitment, beta-galactosidase EFC, saturating ligand) is 6.5 fold.

With QGPPISIDLSLELLRKMIEIEKQEKEKQQAANNRLLLDTI (peptide, UniProt P01144 1-40, looked up) [Sauvagine] as the molecule, how does the Fold induct. (arrestin recruitment, beta-galactosidase EFC, saturating ligand) (CRHR2 fused to PK1) read?
Its Fold induct. (arrestin recruitment, beta-galactosidase EFC, saturating ligand) is 13.1 fold.

And the Fold induct. (arrestin recruitment, beta-galactosidase EFC, saturating ligand) (CRHR2 fused to PK2)?
Its Fold induct. (arrestin recruitment, beta-galactosidase EFC, saturating ligand) is 17.4 fold.

For SANSNPAMAPRERKAGCKNFFWKTFTSC (peptide, UniProt P61278 89-116, looked up) [Somatostatin-28], which Fold induct. (arrestin recruitment, beta-galactosidase EFC, saturating ligand) (SSTR1 fused to PK1) is on record?
The Fold induct. (arrestin recruitment, beta-galactosidase EFC, saturating ligand) was 1.2 fold.

And the Fold induct. (arrestin recruitment, beta-galactosidase EFC, saturating ligand) (SSTR1 fused to PK2)?
The Fold induct. (arrestin recruitment, beta-galactosidase EFC, saturating ligand) was 1.3 fold.

And the Fold induct. (arrestin recruitment, beta-galactosidase EFC, saturating ligand) (SSTR4 fused to PK1)?
The Fold induct. (arrestin recruitment, beta-galactosidase EFC, saturating ligand) was 1.3 fold.

And the Fold induct. (arrestin recruitment, beta-galactosidase EFC, saturating ligand) (SSTR4 fused to PK2)?
The Fold induct. (arrestin recruitment, beta-galactosidase EFC, saturating ligand) was 1.6 fold.

For SLALADDAAFRERARLLAALERRHWLNSYMHKLLVLDAP (peptide, UniProt Q96A98 62-100, looked up) [TIP39], which Fold induct. (arrestin recruitment, beta-galactosidase EFC, saturating ligand) (PTHR2 fused to PK2) is on record?
Its Fold induct. (arrestin recruitment, beta-galactosidase EFC, saturating ligand) is 2.8 fold.

B1: CCL22 (ligand, UniProt O00626 25-93, looked up)
chain: GPYGANMEDSVCCRDYVRYRLPLRVVKHFYWTSDSCPRPGVVLLTFRDKEICADPRVPWVKMILNKLSQ
Which Fold induct. (arrestin recruitment, beta-galactosidase EFC, saturating ligand) (CCR4 fused to PK1) does the source give for B1 here?
The Fold induct. (arrestin recruitment, beta-galactosidase EFC, saturating ligand) was 18.9 fold.

What about the Fold induct. (arrestin recruitment, beta-galactosidase EFC, saturating ligand) (CCR4 fused to PK2) of the same molecule?
Its Fold induct. (arrestin recruitment, beta-galactosidase EFC, saturating ligand) is 3 fold.
